Consider four molecules from patent US20100248978A1, “METHOD FOR IDENTIFYING THE INTERACTION PARTNER OF AN ACTIVE AGENT” (Bayer Cropscience AG, priority 2007, published 2010).

Series [1] deals with T1, recombinant, His-tagged HPPD (p-hydroxyphenylpyruvate dioxygenase) (Arabidopsis thaliana, UniProt P93836).
T1 construct: His-tag
T1 sequence (P93836 1-445): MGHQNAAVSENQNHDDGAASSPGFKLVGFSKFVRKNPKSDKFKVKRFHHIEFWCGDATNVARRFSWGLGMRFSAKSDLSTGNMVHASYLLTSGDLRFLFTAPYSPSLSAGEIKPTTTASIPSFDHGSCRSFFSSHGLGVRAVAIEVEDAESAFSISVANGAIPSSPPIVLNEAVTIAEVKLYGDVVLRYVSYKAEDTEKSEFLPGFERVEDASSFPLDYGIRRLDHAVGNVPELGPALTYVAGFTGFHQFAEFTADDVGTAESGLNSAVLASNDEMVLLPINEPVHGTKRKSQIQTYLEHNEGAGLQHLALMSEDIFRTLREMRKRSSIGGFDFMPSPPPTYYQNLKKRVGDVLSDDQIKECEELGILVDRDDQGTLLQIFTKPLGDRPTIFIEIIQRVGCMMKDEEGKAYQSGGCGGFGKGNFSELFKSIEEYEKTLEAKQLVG
Put plainly: nitrocellulose filter retention assay, binding of radioactively labelled RNA to recombinant HPPD. To be noted: monoclonal aptamer, recombinant HPPD at various concentrations; read-out: dissociation constant. How it is done:
Recombinant, His-tagged HPPD was targeted as an interaction partner in two SELEX runs, referred to as S115A and S115E, which comprised 12 and 9 cycles, respectively. Briefly, the protein was biotinylated and exposed to the RNA library with a 47 nucleotide random region (N47α) in 20 mM Hepes (pH 7.4), 150 mM NaCl, 3 mM MgCl2, and 1 mg/ml BSA (in vitro selection 5115A) or 20 mM Hepes (pH 7.4), 150 mM NaCl, 3 mM MgCl2, 10% DMSO and 1 mg/ml BSA (in vitro selection S115B). The library N47α consists of a random region of 47 nucleotides which is flanked by fixed sequences at the 5′ and 3′ end that serve as primer annealing sites for the amplification of the selected aptamer sequences via reverse transcription and PCR. The 5′ region additionally contains the sequence of an T7-RNA polymerase promoter that enables the transcription of the PCR DNA template into RNA. The sense sequence of the PCR DNA template is “5″-[…]-N47-[…]-3′ (SEQ. ID No. 1). The T7-RNA polymerase promoter is underlined. The double stranded DNA template was used to transcribe the initial RNA library. The procedures to produce an RNA library and to perform a SELEX experiment are well known to a person skilled in the art and described in, e.g., Methods in Enzymology, Vol 267, Combinatorial Chemistry (1996), Abelson J. N. and Simon M. I., eds. Academic Press, San Diego. Subsequently, the complexes between target and RNA were captured on streptavidin-coated beads and unbound RNA was removed by washing with binding buffer. […] RNA bound to the target protein is retained within the complex on the filter and was quantified by a phosphoimager. Values were calculated as the percentage of total radiolabeled RNA in the reaction.
(§1) The dissociation constant (FIG. 4B) was determined to be 128±11 nM. consistent with strong binding to S115A-C1 to recombinant HPPD.
To determine the binding properties of individual aptamers isolated as part of the mixture of aptamers binding to HPPD in the previous example, aptamers were cloned into a vector, and 24 clones were sequenced. For each experiment out of S116B, S116C and S116D, one of the cloned aptamers subsequently identified as specific ligands to HPPD (termed S116C-C18 (5″-GGGAGAGGAGGGAGAUAGAUAUCAAUAUCGCCACGUUACGAGUACCAAGCUULJ […]-3″ (SEQ. ID. No. 3)), S116B-C4 (5′-[…] UGG-3′ (SEQ. ID. No. 4)) and S116D-C8 (5″-GGGAGAGGAGGG […]-3′) (SEQ. ID. No. 5)) was analysed with respect to the thermodynamics of the binding. […] The dissociation constants determined for S116B-C4, S116C-C18 and S116D-C8, were 740±39, 832±39 and 120±9 nM, respectively, consistent with the view that decreasing the concentration of the interaction partner to 2 pM (experiment S116D) actually yield the most tightly binding aptamer.

Series [2] deals with T2, recombinant HPPD (Arabidopsis thaliana, UniProt P93836).
T2 construct: His-tag
T2 sequence (P93836 1-445): T1 sequence (P93836 1-445)
Description: pull down of recombinant HPPD with biotinylated aptamers immobilised on streptavidin beads (SDS-PAGE). As to conditions: for pull down of HPPD (protein band on SDS-PAGE): 10 μg of HPPD, in the absence of protein extract. Type of series: binding. The text has this:
To confirm the concept that aptamers isolated using the competitive SELEX approach can be used to identify the interaction partner of interest, the two tightly binding aptamers S116C-C18 and S116D-C8, henceforth referred to as anti-HPPD aptamers, were biotinylated by in vitro transcription, using the appropriate DNA template and biotinylated ApG starter nucleotides (IBA, Göttingen) (Pitulle C. et al. (1992), Gene, 112(1):101-5; Gaur R. K. et al. (2004), Methods Mol. Biol. 252:9-17) and immobilised on paramagnetic streptavidin (SA) beads.
By contrast, the protein band assigned to HPPD was not visible when negative controls (beads only and N47α immobilised on beads) were used.

Series [3] deals with T3, endogenous HPPD (Arabidopsis thaliana, UniProt P93836).
T3 construct: pull down endogenous HPPD in protein extract, i.e. no recombinant protein was added; from tissue; host or cells: protein extract from freeze-dried powder of Arabidopsis thaliana
T3 sequence (P93836 1-445): T1 sequence (P93836 1-445)
Description: pull down of endogenous HPPD from protein extract with immobilised aptamer (SDS-PAGE). As to conditions: protein extract only as the source of HPPD, no recombinant protein added. Type of series: binding. How it is done:
For a realistic proof of principle scenario representing attempts to identify an unknown interaction partner, biotinylated aptamer S116D-C8 was immobilised and used in attempts to pull down endogenous HPPD in protein extract, i.e. no recombinant protein was added. Again, appropriate controls such as N47α as a negative control and S116D-C8 together with recombinant HPPD were included.

Series [4] has as its system control proteins. Description: nitrocellulose filter retention assay with control proteins as negative controls. Type of series: binding. As to conditions: HPPD replaced by an equivalent concentration of control proteins. How it is done:
Recombinant, His-tagged HPPD was targeted as an interaction partner in two SELEX runs, referred to as S115A and S115E, which comprised 12 and 9 cycles, respectively. Briefly, the protein was biotinylated and exposed to the RNA library with a 47 nucleotide random region (N47α) in 20 mM Hepes (pH 7.4), 150 mM NaCl, 3 mM MgCl2, and 1 mg/ml BSA (in vitro selection 5115A) or 20 mM Hepes (pH 7.4), 150 mM NaCl, 3 mM MgCl2, 10% DMSO and 1 mg/ml BSA (in vitro selection S115B). The library N47α consists of a random region of 47 nucleotides which is flanked by fixed sequences at the 5′ and 3′ end that serve as primer annealing sites for the amplification of the selected aptamer sequences via reverse transcription and PCR. The 5′ region additionally contains the sequence of an T7-RNA polymerase promoter that enables the transcription of the PCR DNA template into RNA. The sense sequence of the PCR DNA template is “5″-[…]-N47-[…]-3′ (SEQ. ID No. 1). The T7-RNA polymerase promoter is underlined. The double stranded DNA template was used to transcribe the initial RNA library. […] RNA bound to the target protein is retained within the complex on the filter and was quantified by a phosphoimager. Values were calculated as the percentage of total radiolabeled RNA in the reaction.
as §1

B1: S116D-C8: monoclonal RNA aptamer, specific ligand to HPPD from competitive SELEX S116D, SEQ. ID. No. 5 (nucleic acid)
chain: GGGAGAGGAGGGAGAUAGAUAUCAAUAAAGUCGGUGACACCACGCAUCCAAAUACCGGUACGCGGAACUAAUAGUUUGUCCUCACGGUGGAUGG
modifications: RNA, backbone not given here
In the case of B1, the Kd in series [1] worked out at 120 ± 9 nM. Also, the “pull down of HPPD (protein band on SDS-PAGE)” value in series [2] is “could be used to pull down HPPD”. Besides, the “pull down of recombinant HPPD (protein band on SDS-PAGE)” value in series [2] (different amounts of HPPD, in the presence of increasing amounts of PE) is “could be used to purify conveniently detectable amounts of HPPD”. Moreover, in series [3], the “pull down of endogenous HPPD (protein band on SDS-PAGE)” value is given as “a protein band was visually detectable”.

B2: S116B-C4: monoclonal RNA aptamer, specific ligand to HPPD from competitive SELEX S116B, SEQ. ID. No. 4 (nucleic acid)
chain: GGGAGAGGAGGGAGAUAGAUAUCAAGUAACAAAUGAUACUUUCCAAGCAUAAUUCAUUCGCAGCCCGAAUUAAGUUUGUCCUCACGGUGGAUGG
modifications: RNA, backbone not given here
As to B2, in series [1], the Kd was determined as 740 ± 39 nM.

B3: S116C-C18 (nucleic acid)
DNA: GGGAGAGGAGGGAGAUAGAUAUCAAUAUCGCCACGUUACGAGUACCAAGCUUUAUUUCCGCAGCCCGAUAGAGUUUGUCCUCACGGUGGAUGG
modifications: chemistry not given here
B3: the Kd in series [1] came to 832 ± 39 nM. For the same molecule, the “pull down of HPPD (protein band on SDS-PAGE)” value in series [2] is recorded as “could be used to pull down HPPD”.

B4: S115A-C1: monoclonal RNA aptamer binding HPPD from classical SELEX run S115A, SEQ. ID. No. 2 (nucleic acid)
chain: GGGAGAGGAGGGAGAUAGAUAUCAACAAUGACUAGCCGUGUAAGUGGUCUCGUACAUCCGAAAAAGACGACCCAGUUUGUCCUCACGGUGGAUGG
modifications: listed as RNA, chemistry not given here
Turning to B4, the Kd in series [1] came out at 128 ± 11 nM. In addition, the “binding to / retention by control proteins” value in series [4] was “not by any of the control proteins”.
